In the nanobody polyreactivity screen of Harvey et al. (2022):

Experiment: yeast display, Sf9 membrane polyspecificity reagent, FACS + sequencing; frameworks hold sequencing errors
Summary of the method: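 Galactose induction of a Saccharomyces cerevisiae BJ5465 synthetic nanobody display library ran 36–48 hours. The cells were then stained for 1 hour at 4 °C with 10% biotinylated, detergent-solubilized Sf9 membrane reagent, pulled down on streptavidin microbeads and FACS-sorted into low and high (top ~1%) gates on expression and reagent-binding fluorescence. Labels for polyreactivity follow the gate of origin.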

Row | Sequence | polyreactivity (PSR sort gate)
1 | QVQLVESGGGIVQAGVSLRLSCAASGSTFESNAMGWYRQAPGKECELVASISGSGGSTFYADSVKGRFTISRDNAKNTVYLHMNSLKPEDTARYYCAAYKEPYYEESGYWGQVTQVTVSS | low polyreactivity
2 | QVQLVESGGGLVQAGGSLRLSCAASGRTFQPYAMGWYRQAPRKERELVASISRSGGRTYYADSVKGRFTISRDNAKNTVYLQMNSLKPEDTAVYYCADDIPYTRSIKYYYWGQGTQVTVSS | high polyreactivity
3 | QVQLVESGGGLVQAGGSLRLSCAASGSIFIGYAMGWYRQAPGKERELVAAISQSGGRTYYADSVKGRFTISRDNAKNTVYLQMNSLKPEDTAVYYCNKVTKSYFIYDYWGQGTQVTVSS | high polyreactivity
4 | QVQIVESGGGLVQAGGSLRLSCAASGGIFAVNAMGWYRQAPGKERELVASITRTGGSTSYEDSVKGRFTISRDNAKNTVYLQMNSLKPEDTAVYYCAAGWQVVLSTNGMDYWGQGTQVTVSS | high polyreactivity
5 | QVQLVESGGGLVQAGGSLRLSCAASGSIFVYYAMGWYRQSPGKERELVAAINWSGGSTYYADSVKGRFTISRDNAKKTVYLQMNSLKPEDSAVYYCNAYLSPYDYDYWGQGTQVTLSS | low polyreactivity
6 | QVQLVESGGGLVHAGGSLLLSCAASGRTFRTYTMGLYRQAPGKERELVAVITWTGGSTYYADSVKGRFTISRDNAKNTVYIQMNSLKPEDTAVYYCAARIITFSNVYNGYEYWGQGTQVTVSS | high polyreactivity
7 | QVQLVESGGGLVQAGGSLRLTCAASGFTFPSYPMVWYRQAPGKERELVAAITRSGVRTYYADSVKGRFTISRDNAKNTVYFQMNSLKPEDTAVYYCAAVYPRQVSQVWRDDFWGQGTQVTVSS | high polyreactivity
8 | QVQLVESGGGLVQAGGSLRLSCAASGSTSKVYAMGWSRQAPGKERELVAAITFSGGSTYADSVKGRFTISRDNAKNTVYLQMNSLKPEDTAVYYCAVEVPYSWWWLVDYWGQGTLVTVSS | high polyreactivity
9 | QVQLVESGGGLVQAGGSLRLSCAASGFTFRWYAMGWYRQAPGKERELVAAISTTGGSTYYADSVKGRFTISRDNAKNTVYFQLNSLKPEDTAVYYCNVYSGRYWESHKFDSWGQGTQVTVSS | high polyreactivity
10 | QVQLVESGGGLVQAGGSLRLSCAASGRTFYYYAMGWYRQAPGKERELVARISYSGSNTYYADSVKGRFTISRDNAKNTVYLQMNSLKPEETAVYYCAAGYLVWRDSATLDYWGQGTQVTVSS | high polyreactivity
11 | QVQLVESGGGLVQSGGSLRLSCAASGSSFLWYGMGSYRQAPGKERELVASISRGGGTDYADSVKGRFTISRDNAKNTVYLQMNSLKPEDTAVYYCAATGVKRYDHWGQGTQVTVSS | low polyreactivity
12 | QVQLVESGGGLVQAGGSLRLSCAASGYTFYSNAMGWYRQAPGKERELVAVISRGGGTYYADSVKGRFTISRDNAKNTVYLQMNSLKPEDTAVYYCAASTFTYHWRYDYWGQGTEVTVSS | low polyreactivity
13 | QVQLVESGGGLVQAGGSLRLSCAASGSTFPDNAMGWYRQAPGKERELVAAISFSSGSTYYADSVKGRFTISRDNAKNTVYLQMNSLKPEDTAVYYCAVANPSPYEWIAYYYWGQGTQVTVSS | low polyreactivity
14 | QVQLVESGGGLVQAGGSLRLSCAASGSIFYFNAMGWYRQAPGKERELVAAITYSGGSTYYADSVKGRFTISRDNAKNTVYLQMNSLKPEDTAVYYCAAERRTFPLRNFDYWGQGTQVTVLS | low polyreactivity
15 | QVQLVESGGGLVQAGGSLRLSCSASGRTFGYNAMGRYRQEPGKERELVAAINWSGASTYYADSVKGRFTISRDNAKNTVYLQMNSLKPEDTAVYYCAADYSYIYGFDYWGQGTQVTVSS | low polyreactivity
16 | QVQLVESGGGLVQAGGSLRLSCAASGRTIKKYTMGWSRQAPGKERELVAVITSGGSTYYADSVKGRFTISRDNAKNTVYFQMNSLKPEDTAVYYCAVIYPELRTWGYYFWGQGTQVTVSS | high polyreactivity
17 | QVQLVESGGGLVQAGGSLRLSCAASGFIFRYYTMGWYRQAPGKERELVAAISYSGGRTYYADSVKGRFTISRDNAKNTVYLQMNSVKPEDTAVYYCAARQGYVDDDYWGQGTQVTVSS | high polyreactivity
18 | QVQLVESGGCIVQAGGSLRLSCAASGLNLDGYAMGWYRQAPGKERELVAAITRSGGRTYYADSVKGRFTISRDNANNTVYLQMNSLKPEDTAVYYCAALGWSVRYRYDYWGQGTQVTVSS | high polyreactivity
19 | QVQLVESGGGLVQAGGSLRLSCAASGNTFVAYTMGWYRPAPGKERELVAAISWRGGTTYYADSVKGRFTISRDNAKNTVYLQMNSLKPEDTAVYYCAARTSYISHGYVTHGLYYWGQGTQVTVSS | high polyreactivity
20 | QVQLVESGGGLVQAGGSLRLSCAASGRIYGYYGMGWYRQAPGKERELVAAITYRGGSTYYADSVKGRFTISRDNAKNTVYLQMNSLKPEDTAVYYCAADGYSHYRYLYDYWGQGTQVTVSS | low polyreactivity
21 | QVQLVESGGGLVQAGGSLRLSCAASGSTFDRNAMGWYRQAPWKERELVATINSDDSKNYADSVKGRFTISRDNAKNTVYLQMNSLKPEDTAVYYCAARLYVTPILSYVERYTNDYWGQGTQVTVSS | low polyreactivity
22 | QVQLVESGGGLVQAGGSLRLSCAASGRTFAYYAMGWYRQAPGKERELVAAIRRSGRTNYADSVKGRFTISRDNAKNTVYLQMNSLKQEDTAVYYCAADYWQGDLRYDYWGQGTQVTVSS | low polyreactivity

Row | Sequence | polyreactivity (PSR sort gate)
23 | QVQLVESGGGLVQAGGSLRLSCAASGSIFQVYAMGWYRQAPGKETELVAAIRRRGGSTYYADSVKGRFTISRDNAKNTVYLQMNSLKPEDTAVDYCAARTVGFYRYDYWGLGTQVTVSS | low polyreactivity
24 | QVQLVESGGGLVQAGGSLRLSCAASGRTFVCNAMGWYRQAPGKERELVAAISSSGTATYYADSVKGRFTISRDNAKNTVYLQMNSLKPEDTAVYYCAKDLLYQPTIRDYWGQGTQVTVSS | low polyreactivity
25 | QVQLVESGGGLVQAGVSLRISCAASVRTFSRYTMGWYRPAPGKERELVAANSGDGASTYYADSVKGRFTISRDNAKYSVYLQMYSLKPEDTAVYYCAARGTRYWDYRYYAYNYWGQGTQVTVSS | high polyreactivity
26 | QVQLVESGRGLVQAGGSLRLSCAASGRTFRGNAMGWYREAPGKERELVAAIRYRGGSTYYADSVKGRFTISRDNAKNTVYLQMNSLKPEDTAVYYCARRYTVHTQHYDYWGQGTQVNVSS | high polyreactivity
27 | QVQLVESGVGLVQAGGSLRLSCAASGLIFASNSMGSYRQAPGKEREFVAAITSSGGSTYYADSVKGRFPISRDNAKNTVYLQMNSLKPEDTAVYYCAADLYGAWWYTYGRYYYWGQGTQVTVSS | low polyreactivity
28 | QVQLVESGGGLVQAGGSLRLSCAASGFIYDYAMGWYRQAPGKEREFVARINWSGGSTYYADSVKGRFTISRDNAKNTVYLQMNSLKPEDTAVYYCATSGWAWRSSNPYEYWGQGTQVTVSS | low polyreactivity
29 | QVQLVESGGGLVQAGGSLRLSCAASGSILRTYTMGWYRQAPGKERELVAAISSSGGRTYYADSVKGRFTISRDNAKNTVYLQMNSLKPEDTAVYYCNAAYTTWRRGPMNYWGQGTQVTVSS | high polyreactivity
30 | QVQLVESGGGLVQAGGSLRLSCAASGRIFWGYVMGWYRQAPGKERELVAAISSGGDTHYADSVKGRFTISRDNAKKTVYLQMNSLKPEDTAVYYCAARPNFTPYEYGYWGQGTQVTVSS | low polyreactivity
31 | QLQLVESGGGLVQAGGSLRLSCAASGRTFYSYAKGWSRPAPGTDRQFVAAISVRGVITYYADSVKGRFTISRDNAKNTVYLQMNSLKPEDTAVDYCAADWSGYYTFDYWGQGTQVTVSS | low polyreactivity
32 | QVQLVESGGGLDQAGVRLRLSCAASGRIVSSYAMGWYRQAPGKERELVAAIRRGGGSTSYADSVKGRFTISRDNAKKTVYLQMNSLKPEDTAVYYCAADSPRGQVHYIGGYWGQGTQVTVSS | low polyreactivity
33 | QVQIVESGGGLVQAGGSLRLSCAASGITFLWNVMGWYRQAPGKERELVATITSIGGITNYADSVKGRFTISRDNAKNSVYLQMNSLKTEDSAFYYCATQIVSGSRVDRNDYWGQGTQVTVSS | low polyreactivity
34 | QVQLVESGGGLVQAGGSLRLSCAASGITFWNNAMGWYRQAPGKERELVATISSNGGRTYYADSVKGRFTISRDNAKNSVYLQMNSLKPEDTAVYYCNAARRAYGYNYWGQGTQVTVSS | low polyreactivity
35 | QVQLVESGGGLVQAGGSLRLSCAASGRTFTGYAMGWYRQAPGKERELVAGISRRGGSTNYADSVKGRFTISRDNSKNTVYLQMNSLKQEDPAVYYCKKRYSLWDEDYWGQGTQVTVSS | high polyreactivity
36 | QVQLVESGGGIVQAGGSLRLSCDASGRIFTGNVMGWYRQAPGKERELVAAISRRGGGTYYADSVKGRFTISRDNAKNTVYLQMNSLIPEDTALYYCDAQYRSQGQPKGCVLYYYWVQGTQVTVSS | high polyreactivity
37 | QVQLVESGGGLVQAGGSLRLSCAASGIIFIGNAMGWYRQAPGKERELVAAITYTGGSTYYADSVKGRFTISRDNAKNTVYLQMNSLKPEDTAVYYCAVDRTHLEDDYWGQGTQVTVSS | low polyreactivity
38 | QVQLVESGGGLVQAGGSLRLSCAASGSIFGGYAMGWYRQAPGKERELVADISGSGGGTYYADSVKGRFTISRDNAKNTVYLQMNSLKPEDTAVYYCARRPRTYKHWFGYWGQGTQVTVSS | low polyreactivity
39 | QVQLVESGGGLVQAGGSLRLSCAASGRILPSNAMGWYRQAPGKEREFVAGISGSGGSTYYADSVKGRFTISRDNAKNTVYLQMNSLKPEDTAVYYCAAGRAYDGTKHDYWGQGTQVTVSS | high polyreactivity
40 | QVQLVESGGGLVQAGGSLRLSCAASGRTFLWNAMGWSRPAPGKERELVAAITSGGRTTYADSVKGRFTISRDNAKNTVYLQMNSLKPEDTAVYYCAAVSANQDFDYWGQGTQVTVSS | high polyreactivity
41 | QVQLVESGGGLVQAGGSLRLSCAASGFTFAWYAMGWYRQAPGKERELVAAITSSGGSTYYADSVKGRFTISRDNAKNTVYLQMNSLKPEDTAVYYCAARPWIWARAGYYWGQGTQVTVSS | high polyreactivity
42 | QVQLVESGGGLVQAGGSLRLSCAASGRIFRSYALGWYRQAPGKERELVAAISSSDGSTYYADSVKGRFTISRDNAKNTVYLQMNSLKPEDTAVYYCNAEQVCYTYGRYPEWYLYGYWGQGTQVTVSS | low polyreactivity
43 | QVQLVESGGGLVQAGGSLRLSCAASGSIFFFYVMGWYRQAPGKERELVAAINNGGSTNYADSVKGRFTISRDNAKNTVYLQMNSLKPEDTAVYYCAADSITSKNQGLDYDYWGQGTQVTVSS | low polyreactivity
